Data taken from patent US20090068103.

Molecular target: Tenascin-C (TN-C) (Homo sapiens) (UniProt P24821)
Assay: FP
Conditions: 5'-C6 amine conjugated to MAG2-DO3A chelator; (CH2CH2O)6 spacer between GGGAGGACG and CGUCGC; 3'-3'-T cap; nitrocellulose filter binding, TN-C titrated 1.25e-7 to 6.35e-12 M

Sequence of Tenascin-C (TN-C) (Homo sapiens) (P24821 23-2201): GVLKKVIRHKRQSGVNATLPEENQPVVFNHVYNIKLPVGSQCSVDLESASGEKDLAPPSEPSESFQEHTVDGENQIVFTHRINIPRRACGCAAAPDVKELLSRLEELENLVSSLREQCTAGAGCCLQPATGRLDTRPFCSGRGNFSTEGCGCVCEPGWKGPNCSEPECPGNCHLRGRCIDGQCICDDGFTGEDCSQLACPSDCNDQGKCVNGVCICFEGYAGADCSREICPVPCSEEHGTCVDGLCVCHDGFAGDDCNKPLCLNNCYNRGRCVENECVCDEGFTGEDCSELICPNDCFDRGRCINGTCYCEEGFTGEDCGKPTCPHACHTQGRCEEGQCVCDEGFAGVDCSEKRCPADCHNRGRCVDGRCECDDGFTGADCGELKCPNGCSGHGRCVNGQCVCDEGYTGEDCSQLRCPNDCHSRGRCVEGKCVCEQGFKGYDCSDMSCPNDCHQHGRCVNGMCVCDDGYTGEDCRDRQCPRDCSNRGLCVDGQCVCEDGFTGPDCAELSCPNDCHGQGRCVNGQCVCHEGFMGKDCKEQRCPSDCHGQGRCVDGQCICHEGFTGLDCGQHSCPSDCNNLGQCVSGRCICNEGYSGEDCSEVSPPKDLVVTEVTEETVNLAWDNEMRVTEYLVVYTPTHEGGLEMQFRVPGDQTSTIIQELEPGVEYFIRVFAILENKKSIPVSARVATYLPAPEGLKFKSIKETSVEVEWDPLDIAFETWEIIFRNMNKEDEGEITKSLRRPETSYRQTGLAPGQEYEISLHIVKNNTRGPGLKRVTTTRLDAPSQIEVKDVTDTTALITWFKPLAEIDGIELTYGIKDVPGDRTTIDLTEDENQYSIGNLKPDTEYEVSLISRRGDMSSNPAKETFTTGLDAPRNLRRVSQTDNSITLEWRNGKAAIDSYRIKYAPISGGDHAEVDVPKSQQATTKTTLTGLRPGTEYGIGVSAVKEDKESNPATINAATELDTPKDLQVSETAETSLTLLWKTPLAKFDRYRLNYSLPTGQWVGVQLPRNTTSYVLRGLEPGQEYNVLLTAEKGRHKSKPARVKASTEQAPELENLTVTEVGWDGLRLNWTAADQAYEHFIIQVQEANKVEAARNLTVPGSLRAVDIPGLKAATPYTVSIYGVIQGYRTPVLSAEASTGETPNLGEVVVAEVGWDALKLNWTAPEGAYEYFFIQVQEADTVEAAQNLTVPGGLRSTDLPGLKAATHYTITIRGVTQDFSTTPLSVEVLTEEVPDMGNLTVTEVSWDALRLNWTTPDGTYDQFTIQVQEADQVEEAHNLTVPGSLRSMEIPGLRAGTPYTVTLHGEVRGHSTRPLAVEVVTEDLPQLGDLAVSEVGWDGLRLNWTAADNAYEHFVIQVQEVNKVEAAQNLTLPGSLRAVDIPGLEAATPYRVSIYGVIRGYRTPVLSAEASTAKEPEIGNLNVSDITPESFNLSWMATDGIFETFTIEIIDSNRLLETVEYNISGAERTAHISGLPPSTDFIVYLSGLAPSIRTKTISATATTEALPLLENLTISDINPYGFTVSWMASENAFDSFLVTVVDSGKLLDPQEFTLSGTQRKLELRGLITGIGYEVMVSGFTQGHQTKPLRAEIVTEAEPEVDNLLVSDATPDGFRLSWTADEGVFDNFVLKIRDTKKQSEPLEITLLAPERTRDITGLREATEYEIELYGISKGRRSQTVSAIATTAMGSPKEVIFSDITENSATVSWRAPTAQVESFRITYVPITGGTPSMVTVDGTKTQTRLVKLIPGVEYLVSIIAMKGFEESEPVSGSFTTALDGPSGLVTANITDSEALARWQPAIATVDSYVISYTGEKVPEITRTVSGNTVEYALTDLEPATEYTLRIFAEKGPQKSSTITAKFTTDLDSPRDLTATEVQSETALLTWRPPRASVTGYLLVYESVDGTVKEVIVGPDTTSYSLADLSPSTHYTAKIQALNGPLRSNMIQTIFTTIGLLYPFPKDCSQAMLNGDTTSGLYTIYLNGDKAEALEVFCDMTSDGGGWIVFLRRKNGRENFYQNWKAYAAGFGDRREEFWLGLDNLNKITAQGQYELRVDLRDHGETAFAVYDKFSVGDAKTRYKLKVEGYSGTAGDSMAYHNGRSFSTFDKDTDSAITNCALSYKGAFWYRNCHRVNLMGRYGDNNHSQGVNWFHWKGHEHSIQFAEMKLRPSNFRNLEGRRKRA

Sequence: GGGAGGACGCGUCGCCGUAAUGGAUGUUUUGCUCCCUG [111In-TTA1-MAG2-DO3A]
- Kd: 1 nM
